The text below walks through data of patent US20240425603A1 (Janssen / Centocor, published 2024).

B3: human VEGFA165 (ligand, UniProt P15692-4 27-191, looked up)
chain: APMAEGGGQNHHEVVKFMDVYQRSYCHPIETLVDIFQEYPDEIEYIFKPSCVPLMRCGGCCNDEGLECVPTEESNITMQIMRIKPHQGQHIGEMSFLQHNKCECRPKKDRARQENPCGPCSERRKHLFVQDPQTCKCSCKNTDSRCKARQLELNERTCRCDKPRR
notes: used unlabeled and biotin labeled; also called human VEGF165 (R&D Systems); hVEGFA165

The target of assay [1] is T1, Recombinant mouse VEGFR1-Fc (R&D Systems) (mouse, UniProt P35969 27-759, limits assumed).
T1 construct: bought; not shown: Fc part of the bought fusion, not described
T1 sequence (looked up): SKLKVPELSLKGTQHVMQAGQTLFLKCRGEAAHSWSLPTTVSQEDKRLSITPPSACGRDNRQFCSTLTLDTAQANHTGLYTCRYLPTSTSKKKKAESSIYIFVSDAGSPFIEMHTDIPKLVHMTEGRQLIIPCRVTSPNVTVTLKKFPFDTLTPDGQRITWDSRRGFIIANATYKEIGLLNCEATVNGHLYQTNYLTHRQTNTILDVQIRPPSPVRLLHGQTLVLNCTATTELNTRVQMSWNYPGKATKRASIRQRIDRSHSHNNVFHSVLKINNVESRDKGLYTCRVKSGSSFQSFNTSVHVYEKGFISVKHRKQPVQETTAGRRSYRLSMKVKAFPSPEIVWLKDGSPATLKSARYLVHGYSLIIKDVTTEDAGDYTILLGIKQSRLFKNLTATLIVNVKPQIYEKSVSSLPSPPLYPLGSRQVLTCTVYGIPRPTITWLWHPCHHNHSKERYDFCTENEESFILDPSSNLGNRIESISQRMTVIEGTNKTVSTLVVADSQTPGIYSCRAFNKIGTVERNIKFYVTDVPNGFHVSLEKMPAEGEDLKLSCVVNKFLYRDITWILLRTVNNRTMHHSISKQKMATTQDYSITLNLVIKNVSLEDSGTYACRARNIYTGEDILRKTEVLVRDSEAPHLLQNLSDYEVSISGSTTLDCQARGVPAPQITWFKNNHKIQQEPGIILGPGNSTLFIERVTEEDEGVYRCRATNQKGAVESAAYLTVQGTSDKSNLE
Nature of the assay: MSD ECL competition on plate-bound mouse VEGFR1-Fc; competitor biotin mouse VEGFA164 (0.2 nM). Put shortly:
(§1)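 Human or mouse VEGFR1-Fc, or His-tagged cyno VEGFR1 (0.5 ug/ml), was captured for 1 hour at room temperature on MSD 384 plates coated with Protein A/G or anti-His mAb and blocked with Blocker A. Half-log antibody dilutions were pre-incubated for 30 minutes, then biotinylated VEGFA (0.2 nM) or PlGF (2 nM) was added. Bound ligand was detected with Sulfo-tagged streptavidin on an MSD SECTOR S 600 imager. IC50 and maximal percent inhibition were calculated from the electro-chemiluminescence readings.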

Assay [2] addresses T2, His tagged cyno VEGFR1 (cynomolgus monkey, UniProt A0A2K5VAF2 27-758). Nature of the assay: MSD ECL competition on plate-bound His-tagged cyno VEGFR1; competitor biotin human PlGF (2 nM). In short, it runs like this: as §1
In assay [3] the target is T3, Recombinant human VEGFR1-Fc (R&D Systems) (human, UniProt P17948 27-687, limits assumed).
T3 construct: bought; not shown: Fc part of the bought fusion, not described
T3 sequence (P17948 27-687 limits assumed): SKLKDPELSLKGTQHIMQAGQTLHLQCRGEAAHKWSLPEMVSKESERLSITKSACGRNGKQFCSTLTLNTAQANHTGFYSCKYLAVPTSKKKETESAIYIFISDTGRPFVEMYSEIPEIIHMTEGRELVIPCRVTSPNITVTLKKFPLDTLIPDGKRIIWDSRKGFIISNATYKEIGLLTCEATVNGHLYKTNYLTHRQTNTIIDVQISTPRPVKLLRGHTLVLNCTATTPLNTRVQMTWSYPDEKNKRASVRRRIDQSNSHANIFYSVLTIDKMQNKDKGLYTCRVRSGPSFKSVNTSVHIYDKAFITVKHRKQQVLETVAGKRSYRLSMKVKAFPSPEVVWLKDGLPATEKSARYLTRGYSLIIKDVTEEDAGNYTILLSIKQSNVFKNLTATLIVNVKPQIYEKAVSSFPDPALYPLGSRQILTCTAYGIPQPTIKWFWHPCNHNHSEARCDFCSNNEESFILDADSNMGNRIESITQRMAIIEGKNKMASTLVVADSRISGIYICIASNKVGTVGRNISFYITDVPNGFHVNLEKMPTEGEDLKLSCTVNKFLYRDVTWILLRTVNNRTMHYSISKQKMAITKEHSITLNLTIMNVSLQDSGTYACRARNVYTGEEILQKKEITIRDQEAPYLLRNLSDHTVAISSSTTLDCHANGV
Nature of the assay: MSD ECL competition on plate-bound human VEGFR1-Fc; competitor biotin PlGF (2 nM). Put shortly: as §1

Assay [4] has as its target recombinant human VEGFR1 (D1-D3) (human, UniProt P17948 27-328, limits assumed). Nature of the assay: SPR; VEGFR1 D1-D3. (In SPR one partner is held on a chip, and binding of the other changes the refractive index at the surface.)
For another assay, the target named is human VEGFR1 (D2-D3) (human, UniProt P17948 130-331). Nature of the assay: SPR; VEGFR1 D2-D3.
In assay [5] the target is T2, His tagged cyno VEGFR1. Nature of the assay: MSD ECL competition on plate-bound His-tagged cyno VEGFR1; competitor biotin human VEGFA165 (0.2 nM). Put shortly:
as §1

For assay [6], the target named is T3, Recombinant human VEGFR1-Fc (R&D …). Nature of the assay: MSD ECL competition on plate-bound human VEGFR1-Fc; competitor biotin human VEGFA165 (0.2 nM). Put shortly: as §1
The target in assay [7] is B3. Nature of the assay: SPR; against the D1-D3 and D2-D3 constructs.
For assay [8], the target named is B3. Nature of the assay: SPR; VEGFR1 D2 alone.
Assay [9] has as its target T4, human VEGFR1, full length, over-expressed on cells (human, UniProt P17948 27-1338).
T4 construct: on CHO-K1 or HEK cells; also called hVEGFR1; CHOK1/ human VEGFR1
Nature of the assay: cell binding assay (column head prints IC50).

The target in assay [10] is T3, Recombinant human VEGFR1-Fc (R&D …). Nature of the assay: biochemical ligand blocking assay; ligand and receptor form not given. In short, it runs like this: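 Antibodies were tested in a biochemical electro-chemiluminescence ligand blocking assay. Recombinant VEGFR1-Fc was captured on Protein A/G-coated MSD plates and pre-incubated for 30 minutes with half-log antibody dilutions. Biotinylated ligand was then added and detected with Sulfo-tagged streptavidin on an MSD imager. IC50 was calculated from the readings.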

The target of assay [11] is cynomolgus monkey VEGFR1 (soluble antigen of the KinExA and SPR affinity assays) (cynomolgus monkey). Nature of the assay: KinExA, solution. The procedure: (§2) Kinetic exclusion assay (KEA; KinExA) was used to analyze the binding of anti-VEGFR1 antibodies to human, mouse and cynomolgus monkeys VEGFR1. KEA is a fluorescence-based solution method, and it is described in detail in the literature (Darling and Brault, 2004). To measure the affinity of an interaction, a series of solutions with a fixed concentration of one interactant (A) and varying concentrations of another interactant (B) are prepared and allowed to reach equilibrium. After equilibration, the concentration of free A is determined by flowing the equilibrated mixture through a column packed with beads modified with reactant B. Free A binds to the beads and is then detected using a fluorescently labeled polyclonal antibody.
(§3) Briefly, fixed concentrations (300 pM, 60 pM, 12 pM, 2.4 or 0.5 pM) of Ab were used to prepare a serial dilution of the antigen (2 nM to 0.52 pM, or 800 pM to 5.37 fM). The complex titrations were incubated at RT to reach binding equilibrium for at least 2 days. After incubation, the samples were run on the KinExA3200 or KinExA4000 instrument to assess free antibody in the reaction. During these studies some of the data were rejected because the experiments failed or failed the acceptance criteria. For mouse VEGFR1 the 60 and 300 pM concentrations were rejected due to high titrant related NSB. The dissociation equilibrium constant, (KD), was determined using the n-curve analysis feature of the KinExA Pro software. This program uses nonlinear least-square regression analysis of the globally fitted data to a 1:1 binding model. (CI=confidence interval).
In general terms: Kinetic exclusion samples the free partner from a solution-phase mixture.

Assay [12] deals with T5, mouse VEGFR1 (soluble antigen of the KinExA and SPR affinity assays) (mouse, UniProt P35969 23-759, limits assumed).
T5 sequence (looked up): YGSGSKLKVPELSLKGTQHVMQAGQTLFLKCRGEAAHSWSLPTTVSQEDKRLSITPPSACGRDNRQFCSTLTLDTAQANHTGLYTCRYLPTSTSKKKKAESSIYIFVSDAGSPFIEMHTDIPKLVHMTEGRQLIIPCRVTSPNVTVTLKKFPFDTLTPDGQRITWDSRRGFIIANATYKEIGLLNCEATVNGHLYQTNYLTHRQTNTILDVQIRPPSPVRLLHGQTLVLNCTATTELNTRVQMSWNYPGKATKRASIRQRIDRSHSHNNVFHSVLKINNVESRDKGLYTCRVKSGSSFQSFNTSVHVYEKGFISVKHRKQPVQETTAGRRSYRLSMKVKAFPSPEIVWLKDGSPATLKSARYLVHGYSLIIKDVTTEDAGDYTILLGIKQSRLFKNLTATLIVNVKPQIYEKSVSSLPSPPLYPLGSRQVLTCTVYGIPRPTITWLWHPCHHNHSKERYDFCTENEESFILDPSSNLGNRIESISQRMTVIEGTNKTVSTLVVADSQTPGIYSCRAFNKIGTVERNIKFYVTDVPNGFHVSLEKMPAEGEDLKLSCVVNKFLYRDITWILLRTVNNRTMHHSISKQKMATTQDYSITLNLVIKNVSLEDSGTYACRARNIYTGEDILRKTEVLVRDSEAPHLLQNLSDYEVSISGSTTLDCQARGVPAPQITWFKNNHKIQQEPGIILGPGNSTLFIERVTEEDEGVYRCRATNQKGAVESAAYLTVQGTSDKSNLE
Nature of the assay: KinExA, solution. How it is done:
as §2, §3

For assay [13], the target named is human VEGFR1 (soluble antigen of the KinExA and SPR affinity assays) (human, UniProt P17948 27-758, limits assumed). Nature of the assay: KinExA, solution. The procedure:
as §2, §3

T4 sequence (P17948 27-1338 limits assumed): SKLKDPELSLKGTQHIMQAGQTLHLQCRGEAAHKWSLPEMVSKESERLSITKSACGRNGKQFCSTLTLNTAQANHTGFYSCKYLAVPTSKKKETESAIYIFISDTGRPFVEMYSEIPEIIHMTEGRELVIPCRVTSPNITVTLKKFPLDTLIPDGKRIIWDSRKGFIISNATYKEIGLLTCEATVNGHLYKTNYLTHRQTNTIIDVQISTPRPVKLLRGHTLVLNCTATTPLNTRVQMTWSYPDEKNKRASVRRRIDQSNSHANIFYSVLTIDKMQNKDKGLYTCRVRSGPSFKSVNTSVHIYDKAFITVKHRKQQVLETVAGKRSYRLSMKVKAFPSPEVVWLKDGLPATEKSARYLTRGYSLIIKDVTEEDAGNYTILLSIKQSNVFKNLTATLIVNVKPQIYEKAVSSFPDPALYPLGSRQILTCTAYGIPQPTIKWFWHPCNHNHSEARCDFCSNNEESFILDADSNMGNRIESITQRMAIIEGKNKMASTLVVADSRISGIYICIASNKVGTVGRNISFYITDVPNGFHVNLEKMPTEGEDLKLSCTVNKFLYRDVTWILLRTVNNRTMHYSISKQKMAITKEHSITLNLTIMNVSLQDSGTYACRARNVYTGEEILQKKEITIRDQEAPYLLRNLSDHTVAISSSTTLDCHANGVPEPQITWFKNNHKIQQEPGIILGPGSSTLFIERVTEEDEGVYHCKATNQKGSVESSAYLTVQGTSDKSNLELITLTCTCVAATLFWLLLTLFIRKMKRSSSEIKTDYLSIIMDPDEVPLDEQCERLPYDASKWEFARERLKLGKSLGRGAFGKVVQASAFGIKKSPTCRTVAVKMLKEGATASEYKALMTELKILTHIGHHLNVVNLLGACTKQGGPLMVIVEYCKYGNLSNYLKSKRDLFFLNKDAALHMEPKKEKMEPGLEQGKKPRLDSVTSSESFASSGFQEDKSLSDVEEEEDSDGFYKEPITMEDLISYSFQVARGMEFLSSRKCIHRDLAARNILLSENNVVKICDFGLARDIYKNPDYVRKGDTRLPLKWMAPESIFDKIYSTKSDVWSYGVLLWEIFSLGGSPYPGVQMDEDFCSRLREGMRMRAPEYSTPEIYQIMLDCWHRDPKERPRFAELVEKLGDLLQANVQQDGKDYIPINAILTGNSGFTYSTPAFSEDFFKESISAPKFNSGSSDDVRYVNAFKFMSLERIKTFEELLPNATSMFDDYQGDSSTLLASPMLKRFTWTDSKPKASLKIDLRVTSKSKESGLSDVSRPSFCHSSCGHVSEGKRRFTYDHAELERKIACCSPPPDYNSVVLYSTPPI
recombinant human VEGFR1 (D1-D3), sequence (P17948 27-328 limits assumed): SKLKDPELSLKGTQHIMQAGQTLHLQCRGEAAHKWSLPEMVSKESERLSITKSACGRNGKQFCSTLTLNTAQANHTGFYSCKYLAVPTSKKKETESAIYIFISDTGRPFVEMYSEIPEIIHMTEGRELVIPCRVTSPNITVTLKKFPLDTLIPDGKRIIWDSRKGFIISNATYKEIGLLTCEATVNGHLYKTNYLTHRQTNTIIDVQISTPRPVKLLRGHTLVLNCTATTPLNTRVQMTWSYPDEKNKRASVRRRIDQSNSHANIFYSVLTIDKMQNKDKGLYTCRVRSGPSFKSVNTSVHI
human VEGFR1 (soluble antigen of the KinExA and SPR affinity assays), sequence (P17948 27-758 limits assumed): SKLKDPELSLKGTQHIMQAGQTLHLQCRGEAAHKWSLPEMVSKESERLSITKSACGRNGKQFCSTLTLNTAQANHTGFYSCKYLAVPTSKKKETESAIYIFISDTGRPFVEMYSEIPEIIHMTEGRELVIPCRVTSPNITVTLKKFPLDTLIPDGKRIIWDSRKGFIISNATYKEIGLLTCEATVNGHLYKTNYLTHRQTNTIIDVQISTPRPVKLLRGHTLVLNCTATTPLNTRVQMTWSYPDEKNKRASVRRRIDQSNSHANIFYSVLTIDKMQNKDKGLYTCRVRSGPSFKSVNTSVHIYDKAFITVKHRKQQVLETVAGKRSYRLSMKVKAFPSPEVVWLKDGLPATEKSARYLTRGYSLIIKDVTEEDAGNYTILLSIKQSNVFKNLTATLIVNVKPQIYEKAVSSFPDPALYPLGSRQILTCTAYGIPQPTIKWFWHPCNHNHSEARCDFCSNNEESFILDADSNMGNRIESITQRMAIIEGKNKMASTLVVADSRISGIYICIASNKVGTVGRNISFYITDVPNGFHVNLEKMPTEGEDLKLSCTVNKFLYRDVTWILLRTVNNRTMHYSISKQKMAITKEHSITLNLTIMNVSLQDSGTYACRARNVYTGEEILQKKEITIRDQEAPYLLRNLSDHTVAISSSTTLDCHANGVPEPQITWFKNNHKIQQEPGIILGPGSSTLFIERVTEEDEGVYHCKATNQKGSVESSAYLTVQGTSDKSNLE

B1: mouse VEGFA164 (ligand, UniProt Q00731-2 27-190, looked up)
chain: APTTEGEQKSHEVIKFMDVYQRSYCRPIETLVDIFQEYPDEIEYIFKPSCVPLMRCAGCCNDEALECVPTSESNITMQIMRIKPHQSQHIGEMSFLQHSRCECRPKKDRTKPENHCEPCSERRKHLFVQDPQTCKCSCKNTDSRCKARQLELNERTCRCDKPRR
notes: also called VEGFA (mouse VEGFR1 columns)
By IC50 is commonly meant the point on the concentration scale where inhibition reaches its midpoint. On to B1, for which, in [1], the half-inhibitory concentration (IC50) stood at 0.15 nM and the “Max % Inh.” value was 99.9%.

B2: human PlGF (ligand, UniProt P49763-2 19-149, looked up)
chain: LPAVPPQQWALSAGNGSSEVEVVPFQEVWGRSYCRALERLVDVVSEYPSEVEHMFSPSCVSLLRCTGCCGDENLHCVPVETANVTMQLLKIRSGDRPSYVELTFSQHVRCECRPLREKMKPERCGDAVPRR
notes: ligand on human and cyno VEGFR1; also called placental growth factor
B2: in the assay with His tagged cyno VEGFR1 [2], the half-maximal inhibitory concentration (IC50) stood at 13.3 nM and the “Max % Inh.” value came to 99.2%. Also, in assay [3], the IC50 was 8.92 nM and the “Max % Inh.” value stood at 98.6%.
The term Kd denotes the concentration at which binding is half-saturated. B3: the dissociation constant (Kd) was < 0.045 nM in [4] and < 0.03 nM in the assay with human VEGFR1 (D2-D3). For the same molecule, the IC50 with His tagged cyno VEGFR1 [5] worked out at 0.261 nM; in assay [6] it was 0.156 nM. Besides, the “Max % Inh.” value (with His tagged cyno VEGFR1 [5]; in assay [6]) was 100% throughout.

B4: Domain 2 of hVEGFR1 alone (receptor)
chain: DTGRPFVEMYSEIPEIIHMTEGRELVIPCRVTSPNITVTLKKFPLDTLIPDGKRIIWDSRKGFIISNATYKEIGLLTCEATVNGHLYKTNYLTHRQ
notes: also called human VEGFR1 D2
B4: the “fold reduction in affinity” value with human VEGFA165 [7] was ~1000 fold. This molecule had a Kd with human VEGFA165 [8] of 22 nM.

B5: VGFB883 (antibody, human IgG1, lambda, L234A L235A, V domains shown)
VH: EVQLLESGGGSVQPGGSLRLSCTASGFNFEDYGMNWVRQAPGKGLDWVSSINRQGDISTYHVDSVKGRFTISRDNSKNTLYLQMNSLRAEDTAIYYCTKNHDYHGMDVWGQGTTVTVSS
VL: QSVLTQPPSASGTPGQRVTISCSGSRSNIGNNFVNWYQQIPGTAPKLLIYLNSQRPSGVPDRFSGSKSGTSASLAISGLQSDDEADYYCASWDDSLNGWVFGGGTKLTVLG
notes: human IgG1 (L234A/L235A/D265S); also called N54Q variant of VGFB54
Take B5: the results for the IC50 in assay [9] and in assay [10] were 0.0655 nM and 0.044 nM, respectively. The Kd was ~0.0005 nM in assay [11], > 2 nM in assay [12] and ~0.0002 nM in [13].
